{
  "source": "patent US20070009975A1",
  "about": "(DAKOCYTOMATION DENMARK A S, published 2007)",
  "key": {"[1]": {"target": "T1, Hsp60 of H. pylori (Helicobacter pylori, UniProt P42383 1-546)", "T1 construct": "Purified as an oligomer", "T1 sequence (P42383 whole entry)": "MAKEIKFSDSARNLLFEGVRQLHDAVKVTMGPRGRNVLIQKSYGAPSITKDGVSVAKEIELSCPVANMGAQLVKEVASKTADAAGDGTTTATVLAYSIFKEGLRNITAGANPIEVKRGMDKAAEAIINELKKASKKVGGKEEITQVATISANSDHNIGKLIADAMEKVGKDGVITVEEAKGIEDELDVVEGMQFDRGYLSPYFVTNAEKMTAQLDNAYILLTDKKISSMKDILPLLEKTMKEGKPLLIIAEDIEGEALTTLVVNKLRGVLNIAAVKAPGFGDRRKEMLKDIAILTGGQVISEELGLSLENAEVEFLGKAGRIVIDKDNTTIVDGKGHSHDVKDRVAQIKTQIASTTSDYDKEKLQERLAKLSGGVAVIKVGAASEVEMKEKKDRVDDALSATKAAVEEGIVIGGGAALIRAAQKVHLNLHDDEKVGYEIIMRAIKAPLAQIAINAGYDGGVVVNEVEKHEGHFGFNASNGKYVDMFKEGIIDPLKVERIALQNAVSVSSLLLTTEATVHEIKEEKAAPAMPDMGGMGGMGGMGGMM", "assay": "sandwich ELISA: polyclonal rabbit anti-H. pylori antigen as catcher, antigen diluted 1:2 from 50 ng/ml, mAb supernatant as detector; lowest antigen concentration with extinction >= 2x control", "experimental": "(§1) Between the single steps the ELISA plate was washed 2 to 3 times with 300 μl PBS with 0.025% Tween (washing buffer) (vol.:vol.). The ELISA plates (MaxiSorb; Nunc) were coated for 1 hour at 37° C. with 100 μl of a solution of a polyclonal rabbit-anti-H. pylori antigen (pAK; approx. 10 μg antibody/ml carbonate buffer, 0.1 M, pH 9.5). In order to block the binding-sites that are still free 200 μl 150 mM PBS with 2% skimmed-milk powder (weight:volume) were pipetted per dish and incubated for 30 min at room temperature. 50 ng/ml purified H. pylori antigens solved in 150 mM PBS were diluted adding 0.1% skimmed-milk powder in 1:2 steps. The buffer served as a negative control. Then, 100 μl culture supernatant diluted 1:10 of the mAK against the same antigen, which is to be analysed, was added and incubated for 30 for 60 min at room temperature. […] The lowest concentration in which an extinction was still detected that was larger than or the same as twice the control was accepted as detection limit."}, "[2]": {"target": "β-urease (large subunit) of H. pylori (Helicobacter pylori, UniProt P69996 1-569)", "sequence (P69996 whole entry)": "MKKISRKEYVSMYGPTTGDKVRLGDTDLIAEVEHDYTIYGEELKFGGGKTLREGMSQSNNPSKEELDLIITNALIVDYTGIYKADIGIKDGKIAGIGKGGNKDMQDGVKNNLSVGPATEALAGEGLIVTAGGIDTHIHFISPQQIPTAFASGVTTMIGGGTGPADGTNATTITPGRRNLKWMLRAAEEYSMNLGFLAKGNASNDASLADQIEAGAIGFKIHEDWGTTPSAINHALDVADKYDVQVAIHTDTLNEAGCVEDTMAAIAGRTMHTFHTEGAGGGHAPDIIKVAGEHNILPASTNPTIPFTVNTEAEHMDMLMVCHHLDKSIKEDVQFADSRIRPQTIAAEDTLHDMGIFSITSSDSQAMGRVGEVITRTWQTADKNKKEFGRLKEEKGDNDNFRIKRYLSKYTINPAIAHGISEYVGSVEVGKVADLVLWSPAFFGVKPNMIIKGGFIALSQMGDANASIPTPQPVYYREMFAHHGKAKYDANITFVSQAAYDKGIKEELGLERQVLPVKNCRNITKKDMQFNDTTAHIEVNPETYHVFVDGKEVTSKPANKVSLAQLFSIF", "assay": "sandwich ELISA: polyclonal rabbit anti-H. pylori antigen as catcher, antigen diluted 1:2 from 50 ng/ml, mAb supernatant as detector; lowest antigen concentration with extinction >= 2x control", "experimental": "as §1"}, "[3]": {"target": "H. pylori urease (oligomeric, purified) (Helicobacter pylori, UniProt P14916 1-238; P69996 1-569)", "sequence (P14916 whole entry, chain 1 of 2)": "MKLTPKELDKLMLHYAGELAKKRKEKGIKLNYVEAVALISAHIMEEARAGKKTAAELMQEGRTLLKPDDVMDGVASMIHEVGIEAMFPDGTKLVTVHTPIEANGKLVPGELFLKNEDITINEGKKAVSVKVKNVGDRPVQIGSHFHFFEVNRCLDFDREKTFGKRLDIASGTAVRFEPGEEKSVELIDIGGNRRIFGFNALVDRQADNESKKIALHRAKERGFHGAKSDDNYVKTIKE", "sequence (P69996 whole entry, chain 2 of 2)": "as the sequence (P69996 whole entry) above", "assay": "SPR (BIAcore), mAb captured by rabbit anti-mouse antibody, H. pylori antigen injected; unit inferred", "experimental": "First, a polyclonal rabbit-anti-mouse antibody was immobilised on the dextran matrix of the BIAcore CM5 glass carrier chip. By adding the first H. pylori antigen-specific monoclonal antibody (1. MAK; 100 μg/ml; 10 μl), it reacted with the immobilised catching antibody and the respective change was measured at the detector (ΔRU₁; RU Resonance Units). After adding the H. pylori antigen (45 μg/ml; 5 μl), it reacted with the first mAK. Then, the remaining free catching antibody was blocked with an unspecific mouse-antibody (1 mg/ml; 10 μl) and oligomeric epitopes by adding another first mAK (100 μg/ml; 10 μl). After the reaction then following of the second H. pylori-antigen-specific antibody (2nd mAK; 100 μg/ml; 10 μl) with the bound antigen, the change in the signal of the detector (ΔRU₂) was determined anew and was compared in percentage to the change at the detector after adding the 1st mAK (ΔRU₂/ΔRU₁). A ratio of ΔRU₂/ΔRU₁<10% indicated overlapping epitopes."}, "[4]": {"target": "T2, alkylhydroperoxide-reductase of H. pylori (26 kDa-protein) (Helicobacter pylori, UniProt P21762 1-198)", "T2 construct": "Purified as an oligomer; also called 26 kDa-antigen; Alkylhydroperoxide reduktase", "T2 sequence (looked up)": "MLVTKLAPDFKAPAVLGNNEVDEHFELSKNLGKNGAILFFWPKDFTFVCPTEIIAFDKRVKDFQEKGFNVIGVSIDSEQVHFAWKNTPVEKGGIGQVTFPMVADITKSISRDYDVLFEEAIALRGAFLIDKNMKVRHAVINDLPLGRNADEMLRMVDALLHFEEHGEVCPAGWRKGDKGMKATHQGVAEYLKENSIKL", "assay": "sandwich ELISA: polyclonal rabbit anti-H. pylori antigen as catcher, antigen diluted 1:2 from 50 ng/ml, mAb supernatant as detector; lowest antigen concentration with extinction >= 2x control", "experimental": "as §1"}},
  "data": [
    {"binder": "HP16m/2A5-E6-E5 (antibody, mouse IgG1, V domains shown, also called DSM ACC2356) VH: VQLLEESGPGLVAPSQSLSITCTVSGFSLSRYSVHWVRQPPGKGLEWLGMIWGGGSTDYNSGLKSRLSISNDNSKSQVFLKMNSLQTDDTAIYYCARNMGGRYPDYFDYWGQGTTLTVSS VL: DIVLTQSPASLAVSLGQRATISCRASKSVSTSGYSYIHWYQQKPGQPPKLLIFLASNLESGVPARFSGSGSGTDFTLNIHPVEEEDAATYHCQHSRELPLTFGAGTKLELK", "values": [
      {"measurement": "NWG (detection limit)", "setting": "[1]", "value": 3, "unit": "ng Ag/ml"}
    ]},
    {"binder": "HP9.1m/3C2-F8-E2 (antibody, mouse IgG1, V domains shown, also called DSM ACC2362; second monoclonal antibody that is specific to urease) VH: VQLLEESGGGLVKPGGSLQLSCSASGFTFSSHFMSWVRQTPEKRLEWVASISSGGDSFYPDSLKGRFAISRDNARNILFLQMSSLRSEDSAMYFCTRDYSWYALDYWGQGTSVTVSS VL: ELQMTQSPSSLSASLGDTITITCHASQNINVWLSWYQQKPGDIPKLLIYKASNLHTGVPSRFSGSGSGTGFTLVISSLQPEDIATYYCQQGRSYPLTFGAGTKLELK", "values": [
      {"measurement": "NWG (detection limit)", "setting": "[2]", "value": 1.2, "unit": "ng Ag/ml"}
    ]},
    {"binder": "HP8m/4H5-D4-C9 (antibody, V domains shown, also called DSM ACC2360; first monoclonal antibody that is specific to urease) VH: VQLLEQSGAELVKPGASVKISCKASGYAFSTSWMNWVKQRPGKGLEWIGRIYPGDGDTNYNGKFKGKATLTADKSSSTAYMQLNSLTSEDSAVYFCVREDAYYSNPYSLDYWGQGTSVTVSS VL: DILLTQSPAILSVSPGERVSFSCRASQSIGTRIHWYQQRTNGSPRLLIKYGSESISGIPSRFSGSGSGTDFSLSINSVESEDIADYYCQQSNTWPLTFGAGTKLELK", "values": [
      {"measurement": "NWG (detection limit)", "setting": "[2]", "value": 0.6, "unit": "ng Ag/ml"},
      {"measurement": "koff", "setting": "[3]", "value": "4.5e-06", "unit": "s⁻¹"}
    ]},
    {"binder": "HP15m/3E8-D9-D6 (antibody, IgG1, V domains shown, Murine; also called DSM ACC2355) VH: VQLLEESGGGLVQPTGSLKLSCAASGFTFNSYAMYWVRQAPGKGLEWVARIRSKSDNYATYYANSVKDRLTISRDDSQNMLYLQMNNLKTEDTAMYYCVRDHDKFPFYYALDYWGPGTLVTVSS VL: ELVLTQSPTIMSASLGERVTMTCTASSSVSSSYLHWYQQKPGSSPKLWIYSTSNLASGVPVRFSGSGSVTSYSLTISSMEAEDAATYYCHQYHRSPPTFGGGTKLEIK", "values": [
      {"measurement": "NWG (detection limit)", "setting": "[4]", "value": 0.6, "unit": "ng Ag/ml"}
    ]}
  ]
}
